Experimental findings from paper PMC7343212, “Lactoferrin-Hexon Interactions Mediate CAR-Independent Adenovirus Infection of Human Respiratory Cells” (Journal of Virology, 2020) are described below.

Holding throughout (test): SPR
On the technique in general: In SPR one partner is held on a chip, and binding of the other changes the refractive index at the surface.

Experiment [1] deals with HAdV-A31 hexon (human adenovirus A31 (strain 1315/63)).
The target of experiment [2] is HAdV-B35 hexon (human adenovirus B35 (strain Holden)).
In experiment [3] the target is HAdV-C5 hexon (human adenovirus C5 (strain Ad75)) (UniProt P04133).

For the substance “human lactoferricin 1-49 (hLfcin1-49) (peptide)”, the values for the Kd in experiment [1], in experiment [2] and in experiment [3] were 187000 nM, 22100 nM and 730 nM, respectively.

“human lactoferrin (hLF) (natural protein)”: in experiment [1], the Kd – broadly, the free concentration of one partner at which half of the binding sites on the other are occupied at equilibrium, for simple one-to-one binding – was found to be 827 nM; the dissociation rate constant (koff) (usually the first-order rate constant of dissociation) is 0.0101 s⁻¹; the kon (commonly a measure of how fast the partners come together) was 12000 M⁻¹ s⁻¹. In experiment [2], this substance yielded a Kd of 151 nM, a koff of 0.00354 s⁻¹ and a kon of 25000 M⁻¹ s⁻¹. In experiment [3], this substance yielded a Kd of 29 nM, a koff of 0.00154 s⁻¹ and a kon of 53000 M⁻¹ s⁻¹.
